From PMC5663514, “Biochemical characterization of Borrelia burgdorferi’s RecA protein” come the findings set out here.

For this data set, the target named is T1, B. burgdorferi RecA (Borrelia burgdorferi B31, UniProt Q59180 1-365).
T1 sequence: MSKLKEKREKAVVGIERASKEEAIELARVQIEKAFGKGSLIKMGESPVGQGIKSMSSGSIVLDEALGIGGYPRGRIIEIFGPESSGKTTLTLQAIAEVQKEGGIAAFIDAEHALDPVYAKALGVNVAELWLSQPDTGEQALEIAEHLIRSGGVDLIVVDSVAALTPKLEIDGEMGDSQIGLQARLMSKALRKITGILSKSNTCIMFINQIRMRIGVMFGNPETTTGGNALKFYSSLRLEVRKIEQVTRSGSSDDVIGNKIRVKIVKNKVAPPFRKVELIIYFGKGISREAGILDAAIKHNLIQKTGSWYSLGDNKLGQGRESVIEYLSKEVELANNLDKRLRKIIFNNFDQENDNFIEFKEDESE
In words: EMSA with glutaraldehyde protein-protein crosslinking; 2 mM Mg2+, 2 mM ATP; affinity increased by ATP, discrete shift and well shifts; 25 mM HEPES pH 7.6, 2 mM MgCl2, 1 mM DTT, 50 mM NaCl, +/- 2 mM ATP; 10 nM DNA molecules; 30°C 5 min, then 0.033% glutaraldehyde 5 min at 20°C/room temperature. The settings on record: protein: recombinant; tags: His tag (pET15b NdeI/BamHI, Ni-NTA; N-terminal implied, removal not mentioned); single strand.

B1: OGCB396 95 nt ssDNA (ssDNA)
DNA: TGCAGGCATGCAAGCTTGGCGTAATCATGGTCATAGCTGTTTCCTGTGTGAAATTGTTATCCGCTCACAATTCCACACAACATACGAGCCGGAAG
For the molecule B1, the binding result is “binds”.
